This is an account of results in paper PMC9900518.

The assay deals with GST-BRCA1-CT-M1775R (BRCT), human BRCA1 BRCT domain residues 1599-1863 (human) (UniProt P38398). The assay is described as follows: pull-down; GST-tagged protein immobilised on glutathione-Sepharose beads; purified recombinant His-tagged protein; binding buffer 50 mM Tris-HCl pH 7.4, 100 mM NaCl, 0.4% Nonidet P-40, 10 mM MgCl2, 5 mM EDTA, 2 mM DTT; anti-His immunoblot. For orientation: In western blotting, separated proteins are transferred to a membrane and probed.

As to “His-GIV-CT (aa 1660-1870) wild type (domain or fragment)”, the fold change of binding against GST-BRCA1 BRCT wild type is 3 to 5 fold.
